Measured values as given in the supplement of paper PMC9170038.

Tested on: MS2 coat protein
Assay: apparent KD of MS2 coat protein; designed switch direction (-1 OFF switch, 1 ON switch): -1; higher = weaker reporter binding
Outline: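 Designed RNA switches sharing common flanks were transcribed on Illumina chips by stalled E. coli RNA polymerase. They were titrated with SNAP-549-labelled MS2 coat protein, from 0.7 or 1.5 nM doubling to 3 µM, in Tris-HCl pH 7.5 buffer with KCl, MgCl2, BSA, DTT, tRNA and Tween-20. Titrations ran without input, with 200 uM small-molecule ligand, or with an oligonucleotide input. The apparent KD of each design is the median over its clusters, after curve-fitting of normalised cluster fluorescence.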

[1] = Eterna round: R95, input ligand: microRNA oligo, concentration not stated
[2] = input ligand: microRNA oligo, concentration not stated
[3] = Eterna round: R95, input ligand: FMN 200 uM
[4] = Eterna round: R95, input ligand: none

Row | Sequence | apparent KD of MS2 coat protein (input ligand: FMN 200 uM) [nM] | apparent KD of MS2 coat protein (input ligand: none) [nM] | apparent KD of MS2 coat protein [1] [nM] | apparent KD of MS2 coat protein [2] [nM] | apparent KD of MS2 coat protein [3] [nM] | apparent KD of MS2 coat protein [4] [nM]
1 | UGAACAUGUGUCAGGAUAUCUGAUGUAAGUUAAUCGGAGAAGGGACAUGAGGAUCACCCAUGUCGUCGAAAGAU [Eternabot (L2) Solution 40] (Eterna round: R97, puzzle: Brourd's mod of Exclusion 4) | 19.3 | 15.5 | – | – | – | –
2 | CAUGUGUUAGGAUAUGCACAGAUCUCCUAAUGGAGAUCUGUGCAGAAGGGACAUGAGGAUCACCCAUGUUGAUG [Mod of Brourd 14 - Jieux - Exclusion 4] (Eterna round: R97, puzzle: Exclusion 4) | 78.6 | 48.6 | – | – | – | –
3 | AUACAACAUGAGGAUCACCCAUGUGAGGAUAUGCGAUACAUCAUCAUCAUCAUCAAUCGCAGAAGGCACAACAU [Different] (puzzle: Exclusion 1) | – | – | 52.3 | – | – | –
4 | UAUAUAUAGUAAGGAUAUGUAUUAAUUUUGUAAACAGAAGGUACUGACAUGAGGAUCACCCAUGUUUUAGUGUGGGCAUGUAGA [JMF's solution 87] (Eterna round: R96, puzzle: Exclusion NG 1) | – | – | – | 111 | – | –
5 | AUAAUGUAAGGAUAUCAGUCGACUAGCGAUAGCUAGUCGACUGAGAAGGUACAUGAGGAUCACCCAUGUGAAUA [E4/16-A4] (Eterna round: R97, puzzle: Exclusion 4) | 213 | 46 | – | – | – | –
6 | GCUGAUGCAGGAUAUAUAUGAAGCGUUCGAAUAGAAUGCGAACAUGAGGAUCACCCAUGUAGAAGGGCAUUGGC [Omei Ex 2, 1A] (puzzle: Exclusion 2) | – | – | 13.9 | – | – | –
7 | AAAACUAACACGAAAGUGUUAGUAAAAUAAGCUUGUGGUACAUGAGGAUCACCCAUGUCCUCAUAAGCUCGUCUUAU [Mat - Sensor v3 - Turn-off var 2 - D44] (puzzle: Sensor v3, turn-off variant 2) | – | – | 67.7 | – | 25.1 | 24.5
8 | ACAAGCUUGUAAUGAUUUAACAUGAGGAUCACCCAUGUAAAUGGAAGAACCAAUUUGAUAUGAUUUACUCGUCUUAU [JR_STOV1_Sub008] (Eterna round: R97, puzzle: Sensor, turn-off variant 1) | 495 | 589 | – | – | – | –
9 | GCCUUACAUGAGGAUCACCCAUGUCAGGAUAUCGUUCAAGAUCUGACCUUAGAUCGAUCGAGAAGGGACUGGAU [Eternabot (L1) Solution 39] (Eterna round: R97, puzzle: Exclusion 1) | 27.4 | 17.2 | – | – | – | –
10 | GCAAGAUUCUGAGGAUAUGCGCUACAUCCCACAGCAGAAGGCGGAAAUUGACUGACAUGAGGAUCACCCAUGUGAUCCGCUUUC [Eternabot solution 33] (Eterna round: R96, puzzle: Exclusion NG 1) | 32.7 | 17.7 | – | 21.2 | – | –
11 | ACAUGAGGAUCACCCAUGUGACAAGAAUGGCUGAUACAGAGAUAGGAUAUAGGUGCAUAUCUAACCUAGAAGGGUCAUGACUGG [Deportation 75 - Jieux - Exclusion NG 3] (Eterna round: R96, puzzle: Exclusion NG 3) | 53.4 | 37 | – | 34.3 | – | –
12 | ACGCAUUGCCUUUGGUAGUGCGUAACAUGAGGAUCACCCAUGUAGGAUAUGGUAGGCUUUGCUUACCAGAAGGACAUUGUUGAU [Omei mod of JL ENG3 1.03] (Eterna round: R96, puzzle: Exclusion NG 3) | 220 | 130 | – | 107 | – | –
13 | GCACUGGCAGGAUAUACAUGAGGAUCACCCAUGUGAUCCCUUAGGUACAAAAGUACUAGUAGAAGGGCCUGUGC [Omei Ex3 Model Bachelor's Dilema v48] (Eterna round: R97, puzzle: Exclusion 3) | 294 | 968 | – | – | – | –
14 | AAACCCUCCGUAAGGAUAUGCGCAGGUAAACCGCUGUAGAAGGUACAUGAGGAUCACCCAUGUUGGACCGUGGA [Eternabot (Original) Solution 35] (Eterna round: R97, puzzle: Brourd's mod of Exclusion 4) | 36 | 29 | – | – | – | –
15 | CAGUACUGAGGAUAUACAUGAGGAUCACCCAUGUCUUCCAGCUAGGAUACUAGCAAAUGUAGAAGGCAGUACUG [Mat - Exclusion 3 - Eli Mod - D9] (Eterna round: R97, puzzle: Exclusion 3) | 428 | 68.1 | – | – | – | –
16 | CUGAGCAGACGGAGAUCCAACAUGAGGAUCACCCAUGUCUCAGAAGCUUUUUGCUCGUCUUAUCCUCCUCUGUUCAC [Elimod 21 - Jieux - Sensor, turn-off variant 1] (Eterna round: R97, puzzle: Sensor, turn-off variant 1) | 103 | 119 | – | – | – | –
17 | AAUAAUUGUGACUUGGGUGACAUGAGGAUCACCCAUGUUACAAGCUUGUUGCUCGUCUUAUAAUUAACCCAUGUCAC [LRO Sensor-off var1-24 mod of Stov1-13-A1 by Brourd] (Eterna round: R97, puzzle: Sensor, turn-off variant 1) | 21.1 | 21.9 | – | – | – | –

Row | Sequence | apparent KD of MS2 coat protein (input ligand: FMN 200 uM) [nM] | apparent KD of MS2 coat protein (input ligand: none) [nM] | apparent KD of MS2 coat protein [1] [nM] | apparent KD of MS2 coat protein [2] [nM] | apparent KD of MS2 coat protein [3] [nM] | apparent KD of MS2 coat protein [4] [nM]
18 | ACAUUGAUUGUGAGGAUAUCGAUGUGAUGGUAUGUCGAGAAGGCACAUGAGGAUCACCCAUGUGGGUUGUAGCA [JR_BMEx4_Sub035] (Eterna round: R97, puzzle: Brourd's mod of Exclusion 4) | 291 | 95.2 | – | – | – | –
19 | GAUUAUGCGAGCUUUAGGGACAUGAGGAUCACCCAUGUUCGUCUUAUUGAUCUGGGUACACUAACAUACCUAAAUCU [JMF 20] (puzzle: Sensor v3, turn-off variant 1) | – | – | 99.7 | – | 87.2 | 94.3
20 | GAGGAGCAAGGAUAUACGAGGAUAUGGAAGGUUGGAGAGUGACAUGAGGAUCACCCAUGUAGAAGGUGCGAGGG [JR_Exclu2_Sub097] (puzzle: Exclusion 2) | – | – | 43.4 | – | – | –
21 | UCUUAUUGAGGAUAUACAUUAAAAUACAUGAGGAUCACCCAUGUUCUUCAAUGUAUAUAUGUAGAAGGCAGAAGAU [Mat - Exclusion 5 - JL Mod - D26] (Eterna round: R97, puzzle: Exclusion 5) | 155 | 36.9 | – | – | – | –
22 | GAAUAGGCAGGAUAUACAUGAGGAUCACCCAUGUGCUUGCGCUAGGCACGUGAACAACGUAGAAGGGCCUAGAC [ChP 13.04.2015 #11] (puzzle: Exclusion 3) | – | – | 12.1 | – | – | –
23 | GGUCUGCGAGGAUAUACAUGAGGAUCACCCAUGUGCGAGUUACUUGUGAGGUCGGUUGGUAGAAGGCGCGGACG [JL-ex3-2.10 salish99 mod] (puzzle: Exclusion 3) | – | – | 68.6 | – | 51.9 | 86.8
24 | UAGAAGUUCAACGAGUGAGACAUGAGGAUCACCCAUGUGGUGGUAGGGAACAAGCUUUUUGCACGUACUUAUGAGGA [JR_SV3TOV1_Sub005] (puzzle: Sensor v3, turn-off variant 1) | – | – | 269 | – | 368 | 414
25 | CCGAAUAAGCAGGAUAUCGAAUCGGAAACGAUUCGAGAAGGGUUAACAUGAGGAUCACCCAUGUUCCUUAACGG [Mat - Exclusion 6 - Eli Mod - D78] (puzzle: Exclusion 6) | – | – | 19.2 | – | – | –
26 | GGCAUGUGAGGAUAUUAACGGCCUAGACCUGGAACGCCACUUAAGAAGGUACAUGAGGAUCACCCAUGUUGGUG [Eternabot (L2) Solution 19] (Eterna round: R97, puzzle: Exclusion 4) | 711 | 367 | – | – | – | –
27 | CCGGUUGGCGCAGGAUAUACAUGAGGAUCACCCAUGUUCAUGAGGAUCACCCAUGAGGUAAUGAUGUAGAAGGGUGGCCCGGCC [A second MS2 with the first and last base exchanged] (Eterna round: R96, puzzle: Exclusion NG 2) | 30.5 | 33.6 | – | 18.5 | – | –
28 | AAGCAACAUGAGGAUCACCCAUGUUAGGAUAUACGCAUGCAUGCAUGCAUGCAUGCAAGUAGAAGGAACCAUGC [Design #15] (Eterna round: R97, puzzle: Exclusion 1) | 32 | 49 | – | – | – | –
29 | CCCAGUUACGGAGGAUAUUGUACAUGAGGAUCACCCAUGUAAUAAAUGAGGAUUUCGGGUGUCUACAAGAAGGCCGGGAUAGGC [Ostracism 18 - Jieux - Exclusion NG 2] (Eterna round: R96, puzzle: Exclusion NG 2) | 262 | 66 | – | 85.3 | – | –
30 | GAAAACGCAGAGGAUAUUUCAGAUCAAAGCUGCAAAGAAGGCUGCACAUGAGGAUCACCCAUGUGGUCUUUAAA [Quesina] (puzzle: Exclusion 6) | – | – | 17.8 | – | 167 | 16.4
31 | UUCCUCUCUUCUUUGUCUCACAUGAGGAUCACCCAUGUAACAUAGGAUAUGCUUGGUAUUUAUAUGCAGAAGGAUGUUAGUAUU [JR_ExcNG3_Sub083] (Eterna round: R96, puzzle: Exclusion NG 3) | 60.8 | 25.7 | – | 19 | – | –
32 | GACGACUCGUCAGGAUAUGUAAACGAGCAAUUGACAGAAGGGACACUGUCGAGGGUACACAUGAGGAUCACCCAUGUACUCGUC [Eternabot solution 40] (Eterna round: R96, puzzle: Exclusion NG 1) | 12.4 | 16.1 | – | 10.3 | – | –
33 | AUUGUAUGGGAAGGAUAUAGAAUAUUAUUUUAACAUGAGGAUCACCCAUGUAACCUUAUGUGUAGCUAGAAGGUCCGUUUGUUA [Title] (Eterna round: R96, puzzle: Exclusion NG 2) | – | – | – | 269 | – | –
